# In patent US20220289857A1 (Kyowa Kirin, published 2022):
# Numbering of substitutions follows the chain as printed. Names may count otherwise. “And” between values parts separate entries of the source, which are not always exact repeats. Identical values can stand only once.
# T1: human Fn14 (full length) on cells (human, UniProt Q9NP84 28-129)
# T1 construct: Transfected 293F cells, or endogenous on HK2, HRMC, A375, HaCaT, primary keratinocytes and dermal fibroblasts; also called hFn14; TNFRSF12A
# T1 sequence: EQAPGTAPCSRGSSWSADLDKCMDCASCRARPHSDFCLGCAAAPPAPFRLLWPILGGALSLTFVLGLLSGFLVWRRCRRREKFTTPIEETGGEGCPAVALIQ
# T2: mouse Fn14 (full length) on transfected 293F cells (mouse, UniProt Q9CR75 28-129)
# T2 sequence: T1 sequence with A7S, R11S, R29P, P47H, T62V, F63L, G66A, L68V, G70S, A97G
# B1: A641/A468 humanized IgG4 Nullbody, kappa antibody (antibody)
# heavy: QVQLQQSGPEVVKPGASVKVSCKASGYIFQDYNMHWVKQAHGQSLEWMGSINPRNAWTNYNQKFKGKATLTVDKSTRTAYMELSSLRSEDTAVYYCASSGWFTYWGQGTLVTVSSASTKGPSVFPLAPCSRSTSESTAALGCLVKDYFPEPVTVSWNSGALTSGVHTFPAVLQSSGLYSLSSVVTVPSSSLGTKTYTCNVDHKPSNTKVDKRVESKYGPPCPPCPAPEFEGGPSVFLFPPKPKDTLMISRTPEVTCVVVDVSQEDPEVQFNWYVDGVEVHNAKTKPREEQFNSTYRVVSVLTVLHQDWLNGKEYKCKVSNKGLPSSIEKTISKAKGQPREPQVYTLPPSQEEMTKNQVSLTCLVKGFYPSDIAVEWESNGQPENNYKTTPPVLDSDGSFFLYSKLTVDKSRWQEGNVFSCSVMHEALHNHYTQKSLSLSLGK
# light: DVVMTQSPLSLPVTLGQPASISCKSSQSLLNSAGKTYLNWLQQRPGQSPRRLIYLVSQLDSGVPDRFSGSGSGTDFTLKISRVEAEDVGVYYCWQGTFYPWTFGGGTKVEIKRTVAAPSVFIFPPSDEQLKSGTASVVCLLNNFYPREAKVQWKVDNALQSGNSQESVTEQDSKDSTYSLSSTLTLSKADYEKHKVYACEVTHQGLSSPVTKSFNRGEC
# B2: A648/A468 humanized IgG4 Nullbody, kappa antibody (antibody, V domains shown)
# VH: QVQLQQSGPEVVKPGASVKVSCKASGYIFQDYNMHWVKQAHGQSLEWMGSINPRNAWTNYNDKFKGKATLTVDKSTRTAYMELSSLRSEDTAVYYCASSGWFTYWGQGTLVTVSS
# VL: DVVMTQSPLSLPVTLGQPASISCKSSQSLLNSAGKTYLNWLQQRPGQSPRRLIYLVSQLDSGVPDRFSGSGSGTDFTLKISRVEAEDVGVYYCWQGTFYPWTFGGGTKVEIKR
# B3: A515/A518 humanized IgG4 Nullbody, kappa antibody (antibody, V domains shown)
# VH: QVQLVQSGAEVVKPGASVKVSCKASGYIFQDYNMHWVRQAHGQGLEWMGYINPRNAGTNYNQKFKGRVTITADKSTRTAYMELSSLRSEDTAVYYCASSGWFTYWGQGTLVTVSS
# VL: B2 VL with F98H
# notes: also called hzR35B9(Y50A56G57)-HV7b / hzR35B9(H98)-LV1a
# B4: A512/A468 humanized IgG4 Nullbody, kappa antibody (antibody, V domains shown)
# VH: B2 VH with Q5V, K38R, D62Q, K67R, L70I
# VL: B2 VL
# notes: Human IgG4null constant (S228P, L235E, R409K); also called hzR35B9(A56)-HV11 / hzR35B9-LV1a
# B5: A650/A468 humanized IgG4 Nullbody, kappa antibody (antibody)
# heavy: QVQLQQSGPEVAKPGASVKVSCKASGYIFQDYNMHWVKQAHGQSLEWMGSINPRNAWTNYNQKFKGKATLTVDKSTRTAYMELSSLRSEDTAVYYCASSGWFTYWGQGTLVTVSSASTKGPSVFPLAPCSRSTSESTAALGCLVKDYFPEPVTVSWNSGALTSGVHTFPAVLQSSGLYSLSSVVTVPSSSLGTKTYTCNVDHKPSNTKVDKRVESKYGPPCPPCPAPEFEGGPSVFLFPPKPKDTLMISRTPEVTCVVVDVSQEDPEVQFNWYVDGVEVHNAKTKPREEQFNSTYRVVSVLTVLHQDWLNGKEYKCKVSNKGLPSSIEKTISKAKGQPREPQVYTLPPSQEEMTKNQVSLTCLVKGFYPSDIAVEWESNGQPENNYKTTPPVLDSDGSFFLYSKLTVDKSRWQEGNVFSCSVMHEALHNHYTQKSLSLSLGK
# light: B1 light
# B6: A553/A472 humanized IgG4 Nullbody, kappa antibody (antibody, V domains shown)
# VH: B3 VH with V12K, R38K, H41P, M48I, Y50S, G57W, R67K, V68A, K74T, R77S
# VL: B2 VL with L15I, Q42L, R50K
# notes: also called hzR35B9(A56)-HV7c / hzR35B9-LV4
# B7: R35B9 (A451/A452) antibody (antibody, V domains shown)
# VH: EVQLQQSGPELVKPGASVKMSCKASGYIFQDYNMHWVKQSHGKSLEWIGSINPRNGWTNYNQKFKGKATLTVNKSSRSAYMEFRSLTSEDSAVYYCASSGWFTYWGQGTLVTVSA
# VL: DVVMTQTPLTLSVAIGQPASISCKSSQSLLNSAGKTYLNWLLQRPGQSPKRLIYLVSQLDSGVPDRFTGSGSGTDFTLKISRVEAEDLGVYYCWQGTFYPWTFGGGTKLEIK
# B8: R35B9(A56) (A486/A452) antibody (antibody, V domains shown)
# VH: B7 VH with G56A
# VL: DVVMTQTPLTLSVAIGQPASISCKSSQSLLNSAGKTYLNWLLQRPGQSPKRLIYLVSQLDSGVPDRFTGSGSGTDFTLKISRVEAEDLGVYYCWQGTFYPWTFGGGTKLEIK
# notes: G56A in HCDR2 removes the NG deamidation site; Constant regions not clear
# B9: chimeric R35B9 (antibody, human IgG4 S228P, kappa)
# heavy chain: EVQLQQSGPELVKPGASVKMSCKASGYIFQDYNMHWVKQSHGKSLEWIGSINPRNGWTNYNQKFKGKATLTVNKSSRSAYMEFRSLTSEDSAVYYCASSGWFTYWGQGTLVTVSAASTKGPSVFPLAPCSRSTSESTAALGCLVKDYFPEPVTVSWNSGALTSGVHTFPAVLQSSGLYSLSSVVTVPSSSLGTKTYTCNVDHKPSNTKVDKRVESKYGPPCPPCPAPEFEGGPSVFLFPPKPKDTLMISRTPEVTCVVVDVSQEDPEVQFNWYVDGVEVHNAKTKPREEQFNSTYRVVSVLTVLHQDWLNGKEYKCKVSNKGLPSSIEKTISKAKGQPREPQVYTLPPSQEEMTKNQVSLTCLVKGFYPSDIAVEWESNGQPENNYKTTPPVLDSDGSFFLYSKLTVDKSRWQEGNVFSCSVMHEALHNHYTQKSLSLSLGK
# light chain: B1 light with S7T, S10T, P12S, T14A, L15I, Q42L, R50K, S68T, V88L, V109L
# notes: It may be the same molecule as m27, R35B9 (A451/A452), but neither the sheet nor the text says so; also called mouse-human chimeric R35B9
# B10: CRCBT-06-002 as mouse IgG1(D265A), kappa antibody (antibody, V domains shown)
# VH: EVKLQQSGGGLVQPGGSMKLSCVASGFTFSYYWMNWVRQSPEQGLEWIAEIRLQSNDYPTHYAESVKGRFTISRDDSKNSVYLQMNNLRPEDTGIYYCACRYADYFDHWGQGTTLTVSS
# VL: DTVLTQSPASLVVSLGQRATISCRASQSVSTSDYSYIHWYQQKPGQPPKFLIKYASNRDSGVPARFSGSGSGTDFTLNIHPVEEDDTAIYYCQHSWEIPPTFGAGTKLELQR
# B11: A437/A290 mouse IgG1(D265A), kappa antibody (antibody, V domains shown)
# VH: B7 VH with S50Y
# VL: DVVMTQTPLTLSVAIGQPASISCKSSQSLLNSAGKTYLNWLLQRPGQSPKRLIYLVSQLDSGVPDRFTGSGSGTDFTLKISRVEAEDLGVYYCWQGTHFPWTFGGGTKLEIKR
# B12: A448/A439 mouse IgG1(D265A), kappa antibody (antibody, V domains shown)
# VH: B7 VH with S50Y, W57G
# VL: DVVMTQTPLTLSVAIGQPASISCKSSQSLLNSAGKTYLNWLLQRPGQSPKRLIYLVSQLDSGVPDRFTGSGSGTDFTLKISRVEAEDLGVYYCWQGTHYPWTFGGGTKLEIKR
# B13: A448/A290 mouse IgG1(D265A), kappa antibody (antibody, V domains shown)
# VH: B7 VH with S50Y, W57G
# VL: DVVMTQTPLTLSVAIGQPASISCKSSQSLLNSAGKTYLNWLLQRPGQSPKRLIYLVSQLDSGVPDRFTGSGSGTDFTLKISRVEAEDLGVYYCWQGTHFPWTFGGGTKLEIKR
# B14: KO41c mouse monoclonal antibody (hybridoma-derived) (antibody, V domains shown)
# VH: B7 VH with I28T, Q30T, S50Y, R54N, W57G
# VL: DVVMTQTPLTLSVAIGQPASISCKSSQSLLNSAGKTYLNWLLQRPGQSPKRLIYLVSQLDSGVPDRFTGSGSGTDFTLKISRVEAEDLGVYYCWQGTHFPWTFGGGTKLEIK
# notes: Hybridoma supernatant or purified antibody from an Fn14 knockout mouse; native mouse IgG, kappa
# Biological target: T3, His-SUMO-huFn14 (soluble human Fn14 aa 28-75 with N-terminal 6xHis-SUMO tag) (human)
# T3 construct: also called His-SUMO-Fn14; His-SUMO-hFn14
# T3 sequence (chain, as listed by the source limits assumed): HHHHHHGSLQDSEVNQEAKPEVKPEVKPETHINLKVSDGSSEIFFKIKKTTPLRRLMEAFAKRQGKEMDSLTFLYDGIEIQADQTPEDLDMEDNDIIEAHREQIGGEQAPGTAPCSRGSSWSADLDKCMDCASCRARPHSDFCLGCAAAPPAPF
# Assay: SPR single-cycle kinetics; mAb captured by anti-human Fc, His-Sumo-Fn14 analyte; 1:1 fit
# Description: (§1) Alternatively, using a method referred to as “single cycle kinetics,” the His-Sumo-Fn14 was injected with increasing concentrations in a single cycle, the surface not being regenerated between injections. Specifically, anti-human Fc specific antibodies were immobilized on a CM5 sensor chip (cat# BR100012, GE Healthcare Life Sciences, Pittsburgh, Pennsylvania) by an amine coupling chemistry. Thereafter, humanized anti-Fn14 antibodies were captured at approximately 200 RUs, followed by injections of increasing concentrations of recombinant human His-Sumo-Fn14 protein. The association time was 120 seconds, and the final dissociation time was 900 seconds. At the end of the analyte injections, the surface was regenerated with 3M MgCl₂ for 30s. The raw data were double referenced by subtraction of the signals from a reference flow cell without immobilized ligand and a buffer blank. The sensorgram corresponding to each concentration was obtained (see FIG. 6B).
Binder,Kd,koff,kon
B1,0.262 nM and 0.249 nM and 0.257 nM,0.000756 s⁻¹ and 0.000773 s⁻¹ and 0.000764 s⁻¹,2.89e+06 M⁻¹ s⁻¹ and 3.11e+06 M⁻¹ s⁻¹ and 2.97e+06 M⁻¹ s⁻¹
B2,0.191 nM and 0.237 nM (2×),0.000531 s⁻¹ and 0.000756 s⁻¹ and 0.000742 s⁻¹,2.78e+06 M⁻¹ s⁻¹ and 3.19e+06 M⁻¹ s⁻¹ and 3.13e+06 M⁻¹ s⁻¹
B3,0.461 nM and 0.473 nM and 0.477 nM,0.00144 s⁻¹ and 0.00154 s⁻¹ and 0.0015 s⁻¹,3.2e+06 M⁻¹ s⁻¹ (2×) and 3.1e+06 M⁻¹ s⁻¹
B4,0.226 nM and 0.194 nM and 0.197 nM,0.000679 s⁻¹ and 0.000664 s⁻¹ and 0.000652 s⁻¹,3e+06 M⁻¹ s⁻¹ and 3.43e+06 M⁻¹ s⁻¹ and 3.31e+06 M⁻¹ s⁻¹
B5,0.264 nM and 0.287 nM and 0.282 nM,0.000871 s⁻¹ and 0.000843 s⁻¹ and 0.000825 s⁻¹,3.3e+06 M⁻¹ s⁻¹ and 2.9e+06 M⁻¹ s⁻¹ (2×)
B6,0.374 nM and 0.347 nM and 0.353 nM,0.000804 s⁻¹ and 0.000812 s⁻¹ and 0.000799 s⁻¹,2.2e+06 M⁻¹ s⁻¹ and 2.3e+06 M⁻¹ s⁻¹ (2×)

# Biological target: T3, His-SUMO-huFn14 (soluble human Fn14 aa …)
# Assay: SPR Biacore; His-Sumo-huFn14 0.111-9 nM
Binder,Kd,koff,kon
B7,0.132 nM,0.000994 s⁻¹,7.52e+06 M⁻¹ s⁻¹
B8,0.0714 nM,0.000354 s⁻¹,4.96e+06 M⁻¹ s⁻¹

# Biological target: T1, human Fn14 (full length) on cells
# Assay: flow cytometry blocking assay on HRMC: antibody for 30 min, then recombinant human TWEAK at 250 ng/mL for 45 min; bound TWEAK detected with biotinylated goat anti-human TWEAK and streptavidin-PE; blocked ligand: TWEAK
# Description: FIG. 25 depicts that humanized anti-Fn14 antibodies blocked TWEAK binding to Fn14 expressed on cells. HRMC were incubated with individual antibodies at various concentrations for 30 minutes followed by incubation with recombinant human TWEAK (250 ng/mL) for 45 minutes. Binding of TWEAK to HRMC cells was detected with biotinylated goat-anti-human TWEAK followed by streptavidin-PE. Stained cells were acquired on a Fortessa. % TWEAK blocking was calculated using the following formula: 100-(Geometric mean fluorescence intensity of sample—Geometric mean fluorescence intensity of cells without TWEAK)/(Geometric mean fluorescence intensity-TWEAK alone with no antibody—Geometric mean fluorescence intensity of cells without TWEAK)*100.
# HRMC cells were incubated with individual antibodies at various concentrations (0.015625-1 ng/mL) for 30 minutes at room temperature. Recombinant human TWEAK (R&D Systems, Cat# 1090-TW/CF) was then added to the cells and incubated for 45 minutes at room temperature. Binding of TWEAK to HRMC cells was detected with a biotinylated goat-anti-human TWEAK (R&D Systems, Cat# BAF1090) followed by streptavidin-PE (Biolegend, Cat# 405204). Stained cells were acquired on a Fortessa. % TWEAK blocking was calculated using the following formula: 100-(Geometric mean fluorescence intensity of sample—Geometric mean fluorescence intensity of cells without TWEAK)/(Geometric mean fluorescence intensity—TWEAK alone with no antibody—Geometric mean fluorescence intensity of cells without TWEAK)*100.
Binder,IC50 (read off the curve),binding result
B9,~0.2 µg/mL,–
B3,–,binds
B4,~0.3 µg/mL,–
B6,–,binds

# Biological target: T1, human Fn14 (full length) on cells
# Assay: cell-based or functional assay
row,Binder,"ICAM-1 MFI on HRMC, 250 ng/mL rhTWEAK, mAb 0.1 µg/mL"
1,B10,11800 MFI
2,B11,5110 MFI
3,B12,5480 MFI
4,B13,6430 MFI

# Biological target: T4, rat Fn14, endogenous on NRK-52E cells (rat, UniProt Q9CR75 28-129 (mouse entry))
# T4 construct: Endogenous protein of rat kidney cells; also called NRK52E-A15/Luc cells
# T4 sequence (Q9CR75 other isoform, or with tags, fused parts or gaps limits assumed): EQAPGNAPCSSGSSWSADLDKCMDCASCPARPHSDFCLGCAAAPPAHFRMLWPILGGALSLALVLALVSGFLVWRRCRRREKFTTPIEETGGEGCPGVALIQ
# Assay: flow cytometry on NRK-52E cells (endogenous rat Fn14), purified antibody 1 µg/mL, detected with anti-mouse IgG PE
# Description: Primary antibodies were used at a concentration of 1 μg/mL and binding was detected using anti-mouse IgG PE.
# (§2) Specifically, the binding activity of hybridoma culture supernatants or purified antibodies to Fn14-expressing cells was evaluated by flow cytometry (FCM). The cell lines evaluated by FCM were Fn14-transfected human embryonic kidney 293F cells (ThermoFisher, cat# R79007) and two cell lines endogenously expressing Fn14, human kidney-derived HK2 cells (ATCC, cat# CRL-2190) and rat kidney-derived NRK-52E cells (Japanese Collection of Research Bioresources Cell Bank (JCRB), cat# IF050480). For FCM analysis, Fn14-expressing cells were harvested using 0.25% trypsin-EDTA (Nacalai Tesque), washed with PBS, and resuspended in SM (Staining Medium: PBS containing 2% FBS, 1 mM EDTA, 0.05% sodium azide). Cells were then seeded in a 96-well plate at 1 ×10⁵ cells per well. Hybridoma supernatant or purified antibody (1 μg/mL final concentration) was added and the cells were incubated at 4° C. for 60 minutes. Cells were then washed with SM, resuspended in goat F(ab′)2 anti-mouse IgG-PE (Southern Biotech Inc.), diluted 1:500 in SM and incubated at 4° C. for 60 minutes. Cells were washed with SM and finally resuspended in 50 μL of SM. Fluorescence intensity was measured by FCM (BD Biosciences, FACS CantoII) and the data were analyzed using FlowJo software (Tomy Digital Biology Co., Ltd.).
row,Binder,binding result
1,B14,binds

# Biological target: T2, mouse Fn14 (full length) on transfected …
# Assay: flow cytometry, hybridoma supernatant on 293F cells transfected with mouse Fn14, detected with anti-mouse IgG PE
# Description: FIG. 1 depicts binding of anti-Fn14 hybridoma supernatants to human and mouse Fn14 transfected cells. […] Hybridoma supernatant binding was detected using anti-mouse IgG PE.
# as §2, with “Cells were washed with SM and finally resuspended in 50 μL of SM.” left out
row,Binder,binding result
1,B14,binds

# Biological target: T3, His-SUMO-huFn14 (soluble human Fn14 aa …)
# Assay: SPR single-cycle kinetics; mAb captured by anti-human Fc, His-Sumo-Fn14 analyte; average of three runs
# Description: as §1
row,Binder,Kd
1,B1,0.256 nM
2,B2,0.222 nM
3,B3,0.47 nM
4,B4,0.206 nM
5,B5,0.278 nM
6,B6,0.358 nM
